Data reported in paper PMC8115157.

Tests used:
Conditions in all cases: remark: other sources report otherwise
[1] = biological target: T1, full-length human calcium-sensing receptor (CaSR) (human), P41180; assay: cryo-EM structure; single-particle cryo-EM of CaSR in DDM/CHS, 20 mM HEPES pH 7.5, 150 mM NaCl, with 10 mM L-Trp and 10 mM CaCl2 (active state, CaSR^Acc); 3.5 Å
T1 chain: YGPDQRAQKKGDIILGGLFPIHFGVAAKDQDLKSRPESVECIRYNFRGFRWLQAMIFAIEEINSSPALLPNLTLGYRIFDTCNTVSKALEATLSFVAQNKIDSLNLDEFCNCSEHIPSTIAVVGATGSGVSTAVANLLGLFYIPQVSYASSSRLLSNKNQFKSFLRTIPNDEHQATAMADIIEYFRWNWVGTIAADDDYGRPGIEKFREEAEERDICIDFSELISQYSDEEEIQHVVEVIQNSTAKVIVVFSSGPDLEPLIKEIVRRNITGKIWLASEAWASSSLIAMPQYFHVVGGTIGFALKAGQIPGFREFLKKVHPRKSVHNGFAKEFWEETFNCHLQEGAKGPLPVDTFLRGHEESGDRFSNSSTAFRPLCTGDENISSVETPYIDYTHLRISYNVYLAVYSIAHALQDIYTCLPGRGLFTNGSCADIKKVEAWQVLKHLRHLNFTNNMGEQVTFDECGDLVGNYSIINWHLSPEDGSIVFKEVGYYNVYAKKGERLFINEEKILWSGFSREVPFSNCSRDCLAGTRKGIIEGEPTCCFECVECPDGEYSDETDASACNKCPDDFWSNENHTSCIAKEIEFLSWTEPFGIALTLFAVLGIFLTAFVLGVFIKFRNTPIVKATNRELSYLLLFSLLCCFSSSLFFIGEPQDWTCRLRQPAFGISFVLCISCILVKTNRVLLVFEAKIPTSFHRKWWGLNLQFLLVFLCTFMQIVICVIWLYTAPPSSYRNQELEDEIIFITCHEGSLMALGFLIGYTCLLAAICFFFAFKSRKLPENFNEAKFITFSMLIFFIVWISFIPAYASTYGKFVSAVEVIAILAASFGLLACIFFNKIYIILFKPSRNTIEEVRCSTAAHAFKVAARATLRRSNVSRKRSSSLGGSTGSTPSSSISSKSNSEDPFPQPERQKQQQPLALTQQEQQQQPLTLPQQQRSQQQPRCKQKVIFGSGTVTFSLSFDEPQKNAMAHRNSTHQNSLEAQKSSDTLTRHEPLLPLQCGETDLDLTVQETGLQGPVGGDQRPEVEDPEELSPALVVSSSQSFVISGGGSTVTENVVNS

[2] = biological target: T1, full-length human calcium-sensing …; assay: cryo-EM structure; single-particle cryo-EM of Ca^2+-free CaSR in DDM/CHS, 20 mM HEPES pH 7.5, 150 mM NaCl, 5 mM EGTA, with 10 mM L-Trp (CaSR^Trp); 4.4 Å
[3] = biological target: T1, full-length human calcium-sensing …; assay: cryo-EM structure; single-particle cryo-EM of CaSR in DDM/CHS, 20 mM HEPES pH 7.5, 150 mM NaCl, 20 mM CaCl2 (three classes: closed-closed CaSR^Ca 3.8 Å, open-closed 5.6 Å, open-open 7.3 Å)
[4] = biological target: T1, full-length human calcium-sensing …; assay: cryo-EM structure; single-particle cryo-EM of CaSR in DDM/CHS, 20 mM HEPES pH 7.5, 150 mM NaCl, 5 mM EDTA (inactive state; three classes Icc 4.5 Å, Ioc 5.7 Å, Ioo 6.8 Å)

Measured: stoichiometry N

B1: full-length human calcium-sensing receptor (CaSR), P41180 20-1078 (receptor)
chain: YGPDQRAQKKGDIILGGLFPIHFGVAAKDQDLKSRPESVECIRYNFRGFRWLQAMIFAIEEINSSPALLPNLTLGYRIFDTCNTVSKALEATLSFVAQNKIDSLNLDEFCNCSEHIPSTIAVVGATGSGVSTAVANLLGLFYIPQVSYASSSRLLSNKNQFKSFLRTIPNDEHQATAMADIIEYFRWNWVGTIAADDDYGRPGIEKFREEAEERDICIDFSELISQYSDEEEIQHVVEVIQNSTAKVIVVFSSGPDLEPLIKEIVRRNITGKIWLASEAWASSSLIAMPQYFHVVGGTIGFALKAGQIPGFREFLKKVHPRKSVHNGFAKEFWEETFNCHLQEGAKGPLPVDTFLRGHEESGDRFSNSSTAFRPLCTGDENISSVETPYIDYTHLRISYNVYLAVYSIAHALQDIYTCLPGRGLFTNGSCADIKKVEAWQVLKHLRHLNFTNNMGEQVTFDECGDLVGNYSIINWHLSPEDGSIVFKEVGYYNVYAKKGERLFINEEKILWSGFSREVPFSNCSRDCLAGTRKGIIEGEPTCCFECVECPDGEYSDETDASACNKCPDDFWSNENHTSCIAKEIEFLSWTEPFGIALTLFAVLGIFLTAFVLGVFIKFRNTPIVKATNRELSYLLLFSLLCCFSSSLFFIGEPQDWTCRLRQPAFGISFVLCISCILVKTNRVLLVFEAKIPTSFHRKWWGLNLQFLLVFLCTFMQIVICVIWLYTAPPSSYRNQELEDEIIFITCHEGSLMALGFLIGYTCLLAAICFFFAFKSRKLPENFNEAKFITFSMLIFFIVWISFIPAYASTYGKFVSAVEVIAILAASFGLLACIFFNKIYIILFKPSRNTIEEVRCSTAAHAFKVAARATLRRSNVSRKRSSSLGGSTGSTPSSSISSKSNSEDPFPQPERQKQQQPLALTQQEQQQQPLTLPQQQRSQQQPRCKQKVIFGSGTVTFSLSFDEPQKNAMAHRNSTHQNSLEAQKSSDTLTRHEPLLPLQCGETDLDLTVQETGLQGPVGGDQRPEVEDPEELSPALVVSSSQSFVISGGGSTVTENVVNS
modifications: here or on the partner: N-linked glycans (N-acetylglucosamine built) at N261, N287, N446, N468, N488 and N541; N-linked glycans (N-acetylglucosamine built) at N261, N287, N446, N468, N488 and N541
2: all assays above
